Earlier results, collected in article PMC7696831.

Target: SARS-CoV spike protein (Severe acute respiratory syndrome coronavirus) (UniProt P59594)

Chain of angiotensin-converting enzyme 2 (Q9BYF1 18-708): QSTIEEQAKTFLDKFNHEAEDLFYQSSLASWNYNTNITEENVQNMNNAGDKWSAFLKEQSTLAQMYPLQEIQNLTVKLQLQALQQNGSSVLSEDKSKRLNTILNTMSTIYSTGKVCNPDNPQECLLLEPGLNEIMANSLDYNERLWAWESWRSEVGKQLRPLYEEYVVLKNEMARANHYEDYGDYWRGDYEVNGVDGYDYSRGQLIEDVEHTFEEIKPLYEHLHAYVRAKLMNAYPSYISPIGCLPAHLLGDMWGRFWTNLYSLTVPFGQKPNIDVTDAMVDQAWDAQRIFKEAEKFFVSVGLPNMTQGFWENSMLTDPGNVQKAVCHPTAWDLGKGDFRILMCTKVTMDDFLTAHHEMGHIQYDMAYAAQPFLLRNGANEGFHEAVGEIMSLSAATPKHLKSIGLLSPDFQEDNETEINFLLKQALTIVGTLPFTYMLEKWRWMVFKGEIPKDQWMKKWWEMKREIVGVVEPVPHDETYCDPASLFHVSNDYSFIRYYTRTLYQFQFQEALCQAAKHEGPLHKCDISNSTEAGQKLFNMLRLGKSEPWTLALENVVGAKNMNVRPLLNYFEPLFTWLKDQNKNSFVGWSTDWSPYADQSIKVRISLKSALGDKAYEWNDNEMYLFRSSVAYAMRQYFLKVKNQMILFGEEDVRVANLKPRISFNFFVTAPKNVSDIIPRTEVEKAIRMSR

angiotensin-converting enzyme 2 (from UniProt Q9BYF1)
Kd: 326 nM
